Data published in patent US20130074217A1 (NUTECH VENTURES, published 2013).

T1: EFR-YFPc / EFR-YFPn (Arabidopsis thaliana, UniProt C0LGT6 25-1031)
T1 construct: Two BiFC constructs used in both combinations, expressed in N. benthamiana leaves; not shown: split-YFP half (YFPc or YFPn) from the BiFC vector
T1 sequence (looked up): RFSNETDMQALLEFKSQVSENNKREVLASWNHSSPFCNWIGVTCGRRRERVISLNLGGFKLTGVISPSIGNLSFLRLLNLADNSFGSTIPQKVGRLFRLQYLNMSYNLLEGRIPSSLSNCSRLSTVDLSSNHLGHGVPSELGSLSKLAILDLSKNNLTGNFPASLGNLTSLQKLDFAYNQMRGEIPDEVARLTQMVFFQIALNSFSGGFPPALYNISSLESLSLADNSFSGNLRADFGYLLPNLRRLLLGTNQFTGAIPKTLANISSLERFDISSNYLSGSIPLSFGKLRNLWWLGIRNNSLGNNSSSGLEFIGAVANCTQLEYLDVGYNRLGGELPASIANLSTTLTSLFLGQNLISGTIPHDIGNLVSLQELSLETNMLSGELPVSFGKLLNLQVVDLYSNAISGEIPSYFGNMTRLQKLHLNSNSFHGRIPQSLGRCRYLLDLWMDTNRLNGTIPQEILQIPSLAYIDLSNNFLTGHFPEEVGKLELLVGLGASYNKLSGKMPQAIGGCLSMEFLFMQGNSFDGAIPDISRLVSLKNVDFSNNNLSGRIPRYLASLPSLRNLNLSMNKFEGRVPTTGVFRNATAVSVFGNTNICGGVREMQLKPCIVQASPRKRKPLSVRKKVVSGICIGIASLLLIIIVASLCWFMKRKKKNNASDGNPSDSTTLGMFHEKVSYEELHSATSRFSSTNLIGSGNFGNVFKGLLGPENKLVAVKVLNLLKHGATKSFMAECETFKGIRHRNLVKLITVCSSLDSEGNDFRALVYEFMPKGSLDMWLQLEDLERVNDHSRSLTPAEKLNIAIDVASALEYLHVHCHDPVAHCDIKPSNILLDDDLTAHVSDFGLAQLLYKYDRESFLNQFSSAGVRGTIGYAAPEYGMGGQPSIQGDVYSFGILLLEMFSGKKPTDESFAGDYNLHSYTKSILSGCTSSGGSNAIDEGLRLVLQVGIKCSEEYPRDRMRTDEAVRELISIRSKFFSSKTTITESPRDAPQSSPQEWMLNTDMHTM

T2: BAK1-HA (Arabidopsis thaliana, UniProt Q94F62 26-615)
T2 construct: Transiently expressed in N. benthamiana; also called LRR-RK BAK1; 35S::BAK1-HA; not shown: HA tag
T2 sequence (looked up): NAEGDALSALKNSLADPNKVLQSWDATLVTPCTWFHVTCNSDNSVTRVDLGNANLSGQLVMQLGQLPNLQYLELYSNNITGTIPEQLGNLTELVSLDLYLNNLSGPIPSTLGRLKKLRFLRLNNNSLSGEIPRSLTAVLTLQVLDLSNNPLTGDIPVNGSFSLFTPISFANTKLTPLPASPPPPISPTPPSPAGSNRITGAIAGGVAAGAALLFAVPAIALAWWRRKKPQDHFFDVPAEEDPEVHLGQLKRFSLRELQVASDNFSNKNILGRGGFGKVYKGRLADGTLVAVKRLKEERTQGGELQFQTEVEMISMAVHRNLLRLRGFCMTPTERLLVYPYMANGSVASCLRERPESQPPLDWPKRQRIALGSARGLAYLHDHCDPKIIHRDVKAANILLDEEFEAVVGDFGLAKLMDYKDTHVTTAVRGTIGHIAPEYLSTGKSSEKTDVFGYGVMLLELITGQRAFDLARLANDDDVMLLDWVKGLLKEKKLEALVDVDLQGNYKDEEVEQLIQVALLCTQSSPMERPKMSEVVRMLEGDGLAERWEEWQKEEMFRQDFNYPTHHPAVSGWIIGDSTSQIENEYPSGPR

B1: GRP7-YFPn / GRP7-YFPc (other)
chain: MASGDVEYRCFVGGLAWATDDRALETAFAQYGDVIDSKIINDRETGRSRGFGFVTFKDEKAMKDAIEGMNGQDLDGRSITVNEAQSRGSGGGGGHRGGGGGGYRSGGGGGYSGGGGSYGGGGGRREGGGGYSGGGGGYSSRGGGGGSYGGGRREGGGGYGGGEGGGYGGSGGGGGW
notes: Two BiFC constructs (N- or C-terminal YFP half) used in both combinations; Results are reported for them together; also called GRP7-YFPn/c; not shown: split-YFP half (YFPn or YFPc) from the pAM-PAT-35S BiFC vector
B2: GRP7-eGFP (other)
chain: MASGDVEYRCFVGGLAWATDDRALETAFAQYGDVIDSKIINDRETGRSRGFGFVTFKDEKAMKDAIEGMNGQDLDGRSITVNEAQSRGSGGGGGHRGGGGGGYRSGGGGGYSGGGGSYGGGGGRREGGGGYSGGGGGYSSRGGGGGSYGGGRREGGGGYGGGEGGGYGGSGGGGGW
notes: Transiently expressed in N. benthamiana under the 35S promoter; also called 35S::GRP7-eGFP; not shown: C-terminal enhanced green fluorescent protein (eGFP) tag

Tests used:
EFR-YFPc / EFR-YFPn = biological target: T1, EFR-YFPc / EFR-YFPn; assay: bimolecular fluorescence complementation in N. benthamiana (panel B)
Protocol: Interaction assays were performed in presence or absence of the auxotrophic amino acid leucine (Leu). […] Scale bar corresponds to 20 μm. Photographs were taken 2 days after infiltration and are representative of the total observations (n=60). All results shown are representative of three independent experiments.

FLS2-YFPc / FLS2-YFPn = biological target: T3, FLS2-YFPc / FLS2-YFPn (Arabidopsis thaliana, UniProt Q9FL28 24-1173); assay: bimolecular fluorescence complementation in N. benthamiana, with plasmolysis (panel E)
T3 construct: Two BiFC constructs used in both combinations, expressed in N. benthamiana leaves; not shown: split-YFP half (YFPc or YFPn) from the BiFC vector

BAK1-HA = biological target: T2, BAK1-HA; assay: co-immunoprecipitation with GFP Trap beads after transient co-expression in N. benthamiana
Protocol: Total proteins (input) were subjected to immunoprecipitation with GFP Trap beads followed by immunoblot analysis. […] Total proteins (input) were subjected to immunoprecipitation with GFP Trap beads followed by immunoblot analysis. […] All results shown are representative of three independent experiments.
Total proteins were extracted in a buffer including 100 mM Tris-HCl pH 7.5, 150 mM NaCl, 5 mM EDTA, 5% glycerol, 10 mM DTT, 0.5% Triton X-100, 1% Igepal and protease inhibitors (Sigma). For co-immunoprecipitation, anti-HA beads (Roche) or anti-GFP-TRAP-A beads (Chromotek) were incubated with total proteins and then washed with the extraction buffer. Proteins were fractioned on SDS-PAGE, transferred onto PVDF membranes (Bio-Rad) and then detected using specific antibodies. […] Epitope-tagged proteins were detected with a peroxidase-conjugated anti-HA-HRP (Santa Cruz); mouse monoclonal anti-GFP antibodies (AMS); or anti-HRP antibodies (Santa Cruz). The secondary anti-rabbit-HRP antibodies (Sigma) were used when appropriate. Immunodetection was performed with ECL chemiluminescence reagent (GE).

T3 sequence (Q9FL28 24-1173): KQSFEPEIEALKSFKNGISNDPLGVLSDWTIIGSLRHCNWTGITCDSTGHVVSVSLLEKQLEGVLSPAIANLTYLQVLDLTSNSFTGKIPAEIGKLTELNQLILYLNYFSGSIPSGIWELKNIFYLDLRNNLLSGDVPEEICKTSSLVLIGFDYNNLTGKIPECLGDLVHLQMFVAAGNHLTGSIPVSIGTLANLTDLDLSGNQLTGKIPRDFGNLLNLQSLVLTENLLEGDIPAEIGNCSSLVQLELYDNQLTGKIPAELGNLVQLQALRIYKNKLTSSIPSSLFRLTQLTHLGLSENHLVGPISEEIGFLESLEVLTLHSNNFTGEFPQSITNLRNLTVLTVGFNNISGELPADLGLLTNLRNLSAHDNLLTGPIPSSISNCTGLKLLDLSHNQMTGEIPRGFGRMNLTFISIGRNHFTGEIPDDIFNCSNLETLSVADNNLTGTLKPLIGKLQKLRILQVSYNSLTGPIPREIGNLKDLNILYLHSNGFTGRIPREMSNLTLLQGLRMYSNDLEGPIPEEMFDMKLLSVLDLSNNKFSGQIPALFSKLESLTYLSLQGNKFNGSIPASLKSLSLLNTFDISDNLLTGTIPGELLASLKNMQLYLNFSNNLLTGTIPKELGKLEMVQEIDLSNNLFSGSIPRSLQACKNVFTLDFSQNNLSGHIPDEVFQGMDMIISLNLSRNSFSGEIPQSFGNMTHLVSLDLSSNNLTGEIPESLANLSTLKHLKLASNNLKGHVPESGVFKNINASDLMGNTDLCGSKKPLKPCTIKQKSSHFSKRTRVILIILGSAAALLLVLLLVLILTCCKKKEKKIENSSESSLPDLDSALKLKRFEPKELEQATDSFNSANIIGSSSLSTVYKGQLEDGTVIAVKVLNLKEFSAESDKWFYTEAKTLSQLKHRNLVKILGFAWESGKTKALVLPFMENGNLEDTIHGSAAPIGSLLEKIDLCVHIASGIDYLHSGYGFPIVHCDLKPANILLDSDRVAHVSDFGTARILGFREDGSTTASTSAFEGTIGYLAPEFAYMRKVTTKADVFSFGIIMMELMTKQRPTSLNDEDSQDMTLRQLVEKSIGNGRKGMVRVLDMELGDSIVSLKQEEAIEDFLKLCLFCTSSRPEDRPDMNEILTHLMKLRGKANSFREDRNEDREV

Row | Binder | binding result (EFR-YFPc / EFR-YFPn) | binding result (FLS2-YFPc / FLS2-YFPn) | binding result (BAK1-HA)
1 | B1 | binds | binds | –
2 | B2 | – | – | no binding
